Target: Nucleosome with symmetrical linkers of 14 base pairs (nucleosome of the 2Chd1:1Nucleosome complex) (Xenopus laevis)
Test: cryo-EM structure; 2:1 complex of ScChd1(1-1305Δ57–88) and a nucleosome with symmetrical 14 bp linkers, ADP-BeFx; envelope at 10-11 Å, two Chd1 and a nucleosome rigid-body docked

stoichiometry N: 2
Substance: ScChd1(1-1305Δ57–88) (from UniProt P32657 1-1305) (enzyme)
